Test results taken from PMC2911020.

Legend:
[1] = biological target: PapDG chaperone-adhesin complex (His-tagged PapD, class II PapG), purified and coumarin-labeled (Escherichia coli) (UniProt P15319); assay: other fluorescence titration
[2] = biological target: PapC usher (Escherichia coli) (UniProt P07110); conditions: cited from earlier work

Substance	Kd [1]	Kd [2]
PapC F21A, purified, His-tag cleaved off (pQY21) (from UniProt P07110 25-836) (natural protein)	62 nM	–
PapC R652A, purified, His-tag cleaved off (pQY652) (natural protein)	1590 nM	–
PapDG chaperone-subunit complex (from UniProt P15319)	–	90 nM
PapC usher, wild type, purified, His-tag cleaved off (pDG2) (from UniProt P07110 25-836) (natural protein)	59 nM	–
